Blank lines part the entries; values can stand above or below the binder they belong to.
Experiments:
human B7-H3 = target: T1, human B7-H3 (human, UniProt Q5ZPR3 29-461, limits assumed); assay: ELISA on coated human B7-H3
T1 sequence (looked up): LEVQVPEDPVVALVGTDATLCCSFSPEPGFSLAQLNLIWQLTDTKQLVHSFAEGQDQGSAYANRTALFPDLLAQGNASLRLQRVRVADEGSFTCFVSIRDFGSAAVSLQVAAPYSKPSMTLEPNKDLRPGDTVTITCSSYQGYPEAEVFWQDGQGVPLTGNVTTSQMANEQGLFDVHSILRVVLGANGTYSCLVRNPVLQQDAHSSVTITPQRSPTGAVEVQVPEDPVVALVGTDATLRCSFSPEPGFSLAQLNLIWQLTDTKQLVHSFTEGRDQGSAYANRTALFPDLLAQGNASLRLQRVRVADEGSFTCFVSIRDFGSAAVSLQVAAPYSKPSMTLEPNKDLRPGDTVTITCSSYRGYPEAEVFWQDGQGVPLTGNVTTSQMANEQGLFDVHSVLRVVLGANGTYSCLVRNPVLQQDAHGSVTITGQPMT

mouse PD-L1-hFc = target: T2, mouse PD-L1-hFc (mouse, UniProt Q9EP73 19-237, limits assumed); assay: monoclonal phage ELISA on coated antigen, detected with anti-M13-HRP
T2 construct: also called mPD-L1 hFc-tag format; not shown: human Fc tag (hFc)
Procedure: (§1) The phage ELISA was performed as previously described (Feng et al., Antib Ther 2019; 2(1):1-11). Briefly, a Nunc 96-well Maxisorp plate was coated with 5 μg/ml antigenic proteins, including mouse PD-L1-His, mouse PD-L1-hFc, human PD-L1-His, human PD-L1-hFc, and the irrelevant antigen human IgG and PBS in 50 μl PBS per well overnight at 4° C. The plate was blocked with 2% BSA in PBS for 1 hour at room temperature. Pre-blocked phage supernatant was then added into the plate. The binding activity was determined with a horseradish peroxidase (HRP)-conjugated mouse anti-M13 antibody (GE Healthcare).

mouse PD-L1-His [1] = target: T3, mouse PD-L1-His (mouse, UniProt Q9EP73 19-237); assay: as above
T3 construct: Bought recombinant protein; also called mPD-L1; recombinant mouse PD-L1-His; not shown: His tag
Procedure: as §1

[2] = target: T4, mouse PD-L1 on murine melanoma cell line B8979HC (mouse, UniProt Q9EP73 19-290); assay: flow cytometry on murine melanoma cells B8979HC (column 'Mouse')
T4 construct: whole, on cells; also called native PD-L1; mouse antigen

[3] = target: T5, peptide #19 of the hPD-L1 ECD peptide array (human); assay: peptide-scanning ELISA on 24 coated hPD-L1 ECD peptides, detected with anti-flag-HRP
T5 construct: 18-mer synthetic peptide from human PD-L1
T5 peptide: TTNSKREEKLFNVTSTLR
Procedure: To predict the binding epitope of anti-PD-L1 nanobodies, a total of 24 peptides were designed based on the hPD-L1 ECD amino acid sequence. Each synthesized peptide is 18 amino acids in length with 9 amino acids of overlap, which allows the minimum antigenic region of hPD-L1 ECD recognized by each VNAR to be narrowed down by step-by-step peptide mapping onto a 9-mer peptide epitope. The ELISA was performed as previously described. In brief, the 24 peptides were coated into individual wells of a 96-well Maxisorp plate. […] The binding activity was determined by ODA450.

human PD-L1-His [4] = target: T6, human PD-L1-His (human, UniProt Q9NZQ7 19-238); assay: BLI (Octet), VNAR-hFc with hPD-L1-His, Ni-NTA sensor; at 50 nM; at a concentration of 50 nM
T6 construct: also called hPD-L1-His; hPD-L1 His-tag format; not shown: His tag

human PD-L1-His [5] = target: T6, human PD-L1-His; assay: BLI (Octet), VNAR-hFc with hPD-L1-His, Ni-NTA sensor; at 100 nM; at a concentration of 100 nM (printed '100 nm')
mouse PD-L1-His [6] = target: T3, mouse PD-L1-His; assay: monoclonal phage ELISA
human PD-L1-His [7] = target: T6, human PD-L1-His; assay: monoclonal phage ELISA on coated antigen, detected with anti-M13-HRP
Procedure: as §1

human PD-L1-hFc = target: T7, human PD-L1-hFc (human, UniProt Q9NZQ7 19-238); assay: as above
T7 construct: also called hPD-L1 hFc-tag format; not shown: human Fc tag (hFc)
Procedure: as §1

[8] = target: T8, human PD-L1 on MDA-MB-231 cells (human, UniProt Q9NZQ7 19-290); assay: flow cytometry on MDA-MB-231 cells (column 'Human')
T8 construct: whole, on cells; also called native PD-L1; human antigen

[9] = target: T9, human PD-L1 (hPD-L1) protein (human, UniProt Q9NZQ7 19-238); assay: BLI (Octet), PD-L1 protein loaded on a Ni-NTA biosensor, VNAR binding step
T9 construct: also called hPD-L1 ECD
T9 sequence (Q9NZQ7 19-238 limits assumed): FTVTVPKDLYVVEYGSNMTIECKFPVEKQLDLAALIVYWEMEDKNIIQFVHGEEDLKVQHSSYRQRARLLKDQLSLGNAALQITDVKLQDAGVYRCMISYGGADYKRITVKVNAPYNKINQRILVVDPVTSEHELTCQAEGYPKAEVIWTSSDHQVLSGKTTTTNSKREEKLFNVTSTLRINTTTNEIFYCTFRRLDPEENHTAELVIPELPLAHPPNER

T2 sequence (Q9EP73 19-237 limits assumed): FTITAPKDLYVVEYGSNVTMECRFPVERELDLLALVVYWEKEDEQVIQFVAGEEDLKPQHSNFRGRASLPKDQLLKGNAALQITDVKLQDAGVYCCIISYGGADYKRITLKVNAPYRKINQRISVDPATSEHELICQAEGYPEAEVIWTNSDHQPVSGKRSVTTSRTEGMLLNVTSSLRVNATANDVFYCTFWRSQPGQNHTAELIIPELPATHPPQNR
T3 sequence (Q9EP73 19-237 limits assumed): as above
T6 sequence (Q9NZQ7 19-238 limits assumed): as the sequence (Q9NZQ7 19-238 limits assumed) above
T4 sequence (Q9EP73 19-290): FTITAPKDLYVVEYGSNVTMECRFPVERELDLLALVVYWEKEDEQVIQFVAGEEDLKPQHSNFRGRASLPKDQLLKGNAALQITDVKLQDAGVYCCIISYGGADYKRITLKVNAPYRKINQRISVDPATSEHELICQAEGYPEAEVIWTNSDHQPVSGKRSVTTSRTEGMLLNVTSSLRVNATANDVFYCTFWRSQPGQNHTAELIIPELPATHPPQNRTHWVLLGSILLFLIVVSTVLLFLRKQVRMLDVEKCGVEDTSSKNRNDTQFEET
T8 sequence (Q9NZQ7 19-290): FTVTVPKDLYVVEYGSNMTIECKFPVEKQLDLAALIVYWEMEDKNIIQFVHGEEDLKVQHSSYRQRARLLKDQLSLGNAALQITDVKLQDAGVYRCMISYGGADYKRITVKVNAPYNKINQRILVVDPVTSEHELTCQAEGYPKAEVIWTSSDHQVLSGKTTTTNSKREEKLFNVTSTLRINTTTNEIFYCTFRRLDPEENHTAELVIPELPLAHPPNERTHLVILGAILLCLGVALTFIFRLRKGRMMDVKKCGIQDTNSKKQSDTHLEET
T7 sequence (Q9NZQ7 19-238 limits assumed): as the sequence (Q9NZQ7 19-238 limits assumed) above

B2: B2-His-flag (VNAR)
VNAR: ARVDQTPRSVTKETGESLTINCVLRDSSYALGSTYWYRKKSGSTNEESISKGGRYVETVNSGSKSFSLRINDLTVEDSGTYRCKYTSRLRREGPLSWDGNTVYGGGTVVTVN
notes: Soluble VNAR B2 with His and flag tags, used at 5 ug/ml in the peptide-scanning ELISA; also called nanobody B2 (peptide scanning); not shown: His tag and flag tag
binding result [3]: binds

B3: B2-hFc (Fc fusion)
chain: B2 VNAR
notes: also called B2 VNAR-hFc fusion protein; not shown: human Fc (hFc)
Kd (human PD-L1-His [4]): 1.4 nM
Kd (human PD-L1-His [5]): 1.7 nM

B4: Shark VNAR A7 (VNAR)
VNAR: ARVDQTPRSVTKETGESLTINCVLRDTSYALGSTYWYRKKLGSTNEESISKGGRYVETVNSGSKSFSLRINDLTVEDSGTYRCKMNQRYPCDNNSWWSLYCGTTVYGGGTVVTVN
binding result (mouse PD-L1-His [6]): binds

B5: Shark VNAR A3 (VNAR)
VNAR: ARVDQTPQTITKETGESLTINCVLRDSNYALGSTYWYRKKSGSTNEESISKGGRYVETVNSGSKSFSLRINDLTVEDSGTYRCKTQKAIPCNMNGYVCGVTIYGGGTVVTVN
binding result (mouse PD-L1-His [6]): binds

B6: Shark VNAR A11 (VNAR)
VNAR: ARVDQTPRSVTKETGESLTINCVLRDTSYALGSTYWYRKKSGSTNEESISKGGRYVETVNSGSKSFSLRINDLTVEDSGTYRCKFKSNTEFLNPLTVSMSTIYGGGTVVTVN
notes: Shark VNAR single-domain antibody
binding result (mouse PD-L1-hFc): binds
binding result (mouse PD-L1-His [1]): binds

B8: Shark VNAR A10 (VNAR)
VNAR: ARVDQTPRSVTKETGESLTINCVLRDTNYALGSTYWYRKKLGSTNEESISKGGRYVETVNSGSKSFSLRINDLTVEDSGTYRCKSTTPWNNLTSFTSERVTIYGGGTVVTVN
binding result (mouse PD-L1-His [6]): binds

B9: Shark VNAR C4 (VNAR)
VNAR: ARVDQTPRSVTKETGESLTINCVLRDTNYALGSTYWYRKKSGSTNEESISKGGRYVETVNSGSKSFSLRINDLTVEDSGTYRCKQSASLWIPNLLRWVPVISYGGGTVVTVN
binding result (mouse PD-L1-His [6]): binds

B10: Shark VNAR A9 (VNAR)
VNAR: ARVDQTPQTITKETGESLTINCVLRDTNYALGSTYWYRKKLGSTNEESISKGGRYVETVNSGSKSFSLRINDLTVEDSGTYRCKNTSPWLTYSPWTVSGQTSYGGGTVVTVN
binding result (mouse PD-L1-His [6]): binds

B11: Shark VNAR A1 (VNAR)
VNAR: ARVDQTPRSVTKETGESLTINCVLRDTNYALGSTYWYRKKSGSTNEESISKGGRYVETVNSGSKSFSLRINDLTVEDSGTYRCKTSSKPLLVSHNVWSAWTEYGGGTVVTVN
binding result (mouse PD-L1-His [6]): binds

B12: Shark VNAR A2 (VNAR)
VNAR: ARVDQTPRSVTKETGESLTINCVLRDTSYALGSTYWYRKKLGSTNEESISKGGRYVETVNSGSKTFSLRINDLTVEDSGTYRCKVQTTWSYLSPYKIEFATVYGGGTVVTVN
binding result (mouse PD-L1-His [6]): binds

B13: Shark VNAR A6 (VNAR)
VNAR: ARVDQTPQTITKETGESLTINCVLRDTSYALGSTYWYRKKSGSTNEESISKGGRYVETVNSGSKSFSLRINDLRVEDSGTYRCKYSSSWQKATEGVWEAMTEYGGGTVVTVN
binding result (mouse PD-L1-His [6]): binds

Now from value to binder:

binding result (human B7-H3): no binding
binding result (mouse PD-L1-hFc): binds
binding result (mouse PD-L1-His [1]): binds
binding result [2]: binds
B1: Shark VNAR B2 (VNAR)
VNAR: B2 VNAR
notes: Shark VNAR single-domain antibody from the semi-synthetic 18AA CDR3 library; also called B2 nanobody; B2 clone

binding result [3]: no binding (tested: 5 µg/ml)
B7: A11-His-flag (VNAR)
VNAR: B6 VNAR
notes: Soluble VNAR A11 with His and flag tags, used at 5 ug/ml in the peptide-scanning ELISA; also called nanobody A11 (peptide scanning); not shown: His tag and flag tag

binding result (mouse PD-L1-His [6]): binds
B14: Shark VNAR D12 (VNAR)
VNAR: ARVDQTPRSVTKETGESLTINCVLRDTNYALGSTYWYRKKSGSTNEESISKGGRYVETVNSGSKSFSLRINDLTVEDSGTYRCKHQSSWRRQAPRVMEMQTLYGGGTVVTVN

binding result (human PD-L1-His [7]): binds
binding result (mouse PD-L1-hFc): binds
binding result (human PD-L1-hFc): binds
binding result (mouse PD-L1-His [1]): binds
binding result [8]: binds
binding result [2]: binds
B15: Shark VNAR F5 (VNAR)
VNAR: ARVDQTPRSVTKETGESLTINCVLRDTNYALGSTYWYRKKLGSTNEESISKGGRYVETVNSGSKSFSLRINDLTVEDSGTYRCKNLGHPMYIAGAICRPLPIYGGGTVVTVN
notes: as for B6

binding result [3]: binds
B16: F5-His-flag (VNAR)
VNAR: B15 VNAR
notes: Soluble VNAR F5 with His and flag tags, used at 5 ug/ml in the peptide-scanning ELISA; also called nanobody F5 (peptide scanning); not shown: His tag and flag tag

binding result [9]: binds
B17: F5-hFc (Fc fusion)
chain: B15 VNAR
notes: VNAR-hFc fusion used on the Octet; also called F5 VNAR-hFc fusion protein; not shown: human Fc (hFc)

From US20240270851A1 (US Dept. of Health and Human Services, published 2024)
